From patent US20260159579A1 (Pfizer, published 2026)

What was measured:
[1] = target: Mouse Fc-mouse GDF15 (Mu IgG1Fc_Fxa_Mu GDF15) (mouse); test: SPR BIAcore T200, 37C; Fc-GDF15 captured, monomeric Fc-Fab as analyte; murine GDF15 ligand (Mu IgG1Fc_Fxa_Mu GDF15), first run
[2] = target: Mouse Fc-mouse GDF15 (Mu IgG1Fc_Fxa_Mu GDF15) (mouse); test: SPR BIAcore T200, 37C; Fc-GDF15 captured, monomeric Fc-Fab as analyte; murine GDF15 ligand (Mu IgG1Fc_Fxa_Mu GDF15), second run

- Kd [1]: 2.11 nM
- Kd [2]: 1.82 nM
B1: monomeric GDF15_001 (CH23LS-GBT-GDF15_001) (Fab, V domains shown)
VH: QVQLVQSGAEVKKPGSSVKVSCKASGYTFSSYNIDWVRQAPGQGLEWMGGINPIFGTAFYNQKFQGRVTITADESTSTAYMELSSLRSEDTAVYYCAREAITTVGAMDHWGQGTLVTVSS
VL: EIVLTQSPATLSLSPGERATLSCRTSQSVHNYLAWYQQKPGQAPRLLIYDASTRADGIPARFSGSGSGTDFTLTISSLEPEDFAVYYCQQFWSWPWTFGQGTKVEIK
notes: Monovalent 'monomeric Fc-Fab' of GDF15_001 made to measure KD without avidity; also called CH23LS-GDF15_001; monomeric Fc-Fab
